In publication doi:10.1101/313767 (bioRxiv, 2018):

Key:
[1] = target: T1, TRIB1(84–343), the pseudokinase part of the crystallised fusion (human, UniProt Q96RU8 84-343); test: crystal structure
T1 sequence: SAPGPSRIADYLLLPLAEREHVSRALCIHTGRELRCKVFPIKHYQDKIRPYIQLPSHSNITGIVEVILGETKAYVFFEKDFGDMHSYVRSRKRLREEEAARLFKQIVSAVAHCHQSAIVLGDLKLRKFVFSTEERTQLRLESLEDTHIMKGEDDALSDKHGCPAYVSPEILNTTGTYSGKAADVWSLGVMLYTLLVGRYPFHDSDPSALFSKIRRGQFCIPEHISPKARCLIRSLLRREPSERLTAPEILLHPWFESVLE

TRIB1(84–372) [2] = target: T2, TRIB1(84–372) (human, UniProt Q96RU8 84-372); test: differential scanning fluorimetry
T2 sequence: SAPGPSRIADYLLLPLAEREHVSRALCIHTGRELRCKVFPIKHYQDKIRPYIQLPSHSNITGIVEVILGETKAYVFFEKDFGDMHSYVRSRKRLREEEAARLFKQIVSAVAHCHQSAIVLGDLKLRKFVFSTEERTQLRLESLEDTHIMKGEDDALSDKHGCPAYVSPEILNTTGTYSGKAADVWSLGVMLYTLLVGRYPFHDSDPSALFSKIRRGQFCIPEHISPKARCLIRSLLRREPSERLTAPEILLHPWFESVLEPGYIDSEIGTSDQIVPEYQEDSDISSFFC

TRIB1(84–372) [3] = target: T2, TRIB1(84–372); test: ITC
WT GST-TRIB1(84–372) = target: T3, WT GST-TRIB1(84–372) (human, UniProt Q96RU8 84-372); test: pull-down
T3 sequence: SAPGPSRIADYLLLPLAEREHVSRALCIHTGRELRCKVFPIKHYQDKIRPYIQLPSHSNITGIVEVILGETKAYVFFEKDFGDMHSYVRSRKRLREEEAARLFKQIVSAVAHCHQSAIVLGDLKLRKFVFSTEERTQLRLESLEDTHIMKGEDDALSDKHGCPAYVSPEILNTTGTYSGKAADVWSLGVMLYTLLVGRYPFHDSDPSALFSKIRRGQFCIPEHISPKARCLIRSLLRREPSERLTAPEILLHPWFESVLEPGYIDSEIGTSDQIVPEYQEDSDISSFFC

Binder	binding result (TRIB1(84–372) [3])	other results
GGICEHETSIDISAYIDPAAFND [C/EBPα(53–75), the degron part of the crystallised fusion]		binding result [1]: binds
GGICEHETSIDISAYIDPAAFND [C/EBPα peptide (53–75)]		binding result (TRIB1(84–372) [2]): binds
GGICEHETSIDISAYIDPAAFND [His6MBP-C/EBPα(53–75)]	binds	binding result (WT GST-TRIB1(84–372)): binds
PAMYDDESAIDFSAYIDSMAAVP [C/EBPδ(50–72) fused to maltose-binding protein]	binds	
GDMCEHEASIDLSAYIESGEEQL [C/EBPε(31–53) fused to maltose-binding protein]	binds	
